This is an account of results in US20220048991A1 (BIOND BIOLOGICS, published 2022).

Sequences and labels used below:
B1: 15G8-23 (humanized 15G8, VH2/Vk3) (antibody, human IgG4 S228P, kappa, V domains shown)
VH: DVQLQGSGPGLVKPSETLSLTCSVTGYSITSGYYWNWIRQFPGKKLEWMGYISYDGSNNYNPSLKNRITISRDTSKNQFSLKLSSVTAADTATYYCAHGYSYYYAMDAWGQGTTVTVSS
VL: DIQMTQSPSSLSASVGDRVTITCRTSQDISNYLNWYQQKPGKAVKLLISYTSRLHSGVPSRFSGSGSGTDYTLTISSLQPEDFATYYCQQGNTLPTFGQGTKLEIKR
notes: Humanized IgG4 (S228P, L235E), kappa
B2: humanized 15G8 VH4/Vk2 (antibody, IgG4, V domains shown)
VH: B1 VH with D1Q, F41P, K45G, I68V
VL: DIQMTQSPSSLSASVGDRVTITCRTSQDISNYLNWYQQKPGKAVKLLISYTSRLHSGVPSRFSGSGSGTDYTLTISSLQPEDFATYFCQQGNTLPTFGQGTKLEIK
notes: Humanized IgG4 (S228P, L235E), kappa; tested as supernatant of transiently transfected HEK EBNA cells
B3: humanized 15G8 VH1/Vk4 (antibody, IgG4, V domains shown)
VH: B1 VH with S84N, T114S
VL: B2 VL with V44P
notes: as for B2
B4: humanized 15G8 VH4/Vk1 (antibody, IgG4, V domains shown)
VH: B1 VH with D1Q, F41P, K45G, I68V
VL: B2 VL with P8T, P80Q
notes: as for B2
B5: humanized 15G8 VH1/Vk2 (antibody, IgG4, V domains shown)
VH: B1 VH with S84N, T114S
VL: B2 VL
notes: as for B2
B6: humanized 15G8 VH1/Vk1 (antibody, IgG4, V domains shown)
VH: B1 VH with S84N, T114S
VL: B2 VL with P8T, P80Q
notes: as for B2
B7: 15G8-54 (humanized 15G8, VH5/Vk4) (antibody, IgG4, V domains shown)
VH: B1 VH with D1Q, S23T, F41P, K45G, M49I, I68V
VL: B2 VL with V44P
notes: as for B1
B8: humanized 15G8 VH2/Vk4 (antibody, IgG4, V domains shown)
VH: B1 VH
VL: B2 VL with V44P
notes: as for B2
B9: 15G8-53 (humanized 15G8, VH5/Vk3) (antibody, human IgG4 S228P, kappa, V domains shown)
VH: B1 VH with D1Q, S23T, F41P, K45G, M49I, I68V
VL: B1 VL
notes: as for B1
B10: humanized 15G8 VH2/Vk1 (antibody, IgG4, V domains shown)
VH: B1 VH
VL: B2 VL with P8T, P80Q
notes: as for B2
B11: 15G8-44 (humanized 15G8, VH4/Vk4) (antibody, IgG4, V domains shown)
VH: B1 VH with D1Q, F41P, K45G, I68V
VL: B2 VL with V44P
notes: as for B1
B12: 15G8-34 (humanized 15G8, VH3/Vk4) (antibody, IgG4, V domains shown)
VH: B1 VH with F41P, K45G
VL: B2 VL with V44P
notes: as for B1
B13: humanized 15G8 VH2/Vk2 (antibody, IgG4, V domains shown)
VH: B1 VH
VL: B2 VL
notes: as for B2
B14: humanized 15G8 VH3/Vk1 (antibody, IgG4, V domains shown)
VH: B1 VH with F41P, K45G
VL: B2 VL with P8T, P80Q
notes: as for B2
B15: 15G8-32 (humanized 15G8, VH3/Vk2) (antibody, human IgG4 S228P, kappa, V domains shown)
VH: B1 VH with F41P, K45G
VL: B1 VL with Y87F
notes: as for B1
B16: humanized 15G8 VH5/Vk2 (antibody, IgG4, V domains shown)
VH: B1 VH with D1Q, S23T, F41P, K45G, M49I, I68V
VL: B2 VL
notes: as for B2
B17: humanized 15G8 VH5/Vk1 (antibody, IgG4, V domains shown)
VH: B1 VH with D1Q, S23T, F41P, K45G, M49I, I68V
VL: B2 VL with P8T, P80Q
notes: as for B2
B18: humanized 15G8 VH4/Vk3 (antibody, IgG4, V domains shown)
VH: B1 VH with D1Q, F41P, K45G, I68V
VL: B2 VL with F87Y
notes: as for B2
B19: humanized 15G8 VH3/Vk3 (antibody, IgG4, V domains shown)
VH: B1 VH with F41P, K45G
VL: B2 VL with F87Y
notes: as for B2
B20: 19E3 (hybridoma-derived, murine) (antibody, V domains shown)
VH: QVQLQQSGAELARPGASVKLSCKASGYTFTSYGISWVKQRTGQGLEWVGEIYPGSGNSYYNEKFKGKATLTADKSSSTAYMELRSLTSEDSAVYFCARSNDGYPDYWGQGTTLTVSS
VL: DIQMTQSSSYLSVSLGGRVTITCKASDHINNWLAWYQQKPGNAPRLLISGATSLETGVPSRFSGSGSGKDYTLSITSLQTEDVATYYCQQYWSTPWTFGGGTKLEIK
B21: 17F2 (hybridoma-derived, murine) (antibody, V domains shown)
VH: QVQLQQSDAELVKPGASVKISCKVSGYTFTDHTIHWMKQRPEQGLEWIGYIYPRDGSTKYNEKFKGKATLTADKSSSTAYMQLNSLTSEDSAVYFCARTWDYFDYWGQGTTLTVSS
VL: DIVLTQSPASLAVSLGQRATISCRASESVDSYGNSFMHWYQQKPGQPPKLLIYRASNLESGIPARFSGSGSRTDFTLTINPVEADDVATYYCQQSNEDPYTFGGGTKLEIK

Numbering of substitutions follows the chain as printed. In names and notes the source's numbering stands.

Sequence of ILT6 (Q8N6C8 24-439 limits assumed): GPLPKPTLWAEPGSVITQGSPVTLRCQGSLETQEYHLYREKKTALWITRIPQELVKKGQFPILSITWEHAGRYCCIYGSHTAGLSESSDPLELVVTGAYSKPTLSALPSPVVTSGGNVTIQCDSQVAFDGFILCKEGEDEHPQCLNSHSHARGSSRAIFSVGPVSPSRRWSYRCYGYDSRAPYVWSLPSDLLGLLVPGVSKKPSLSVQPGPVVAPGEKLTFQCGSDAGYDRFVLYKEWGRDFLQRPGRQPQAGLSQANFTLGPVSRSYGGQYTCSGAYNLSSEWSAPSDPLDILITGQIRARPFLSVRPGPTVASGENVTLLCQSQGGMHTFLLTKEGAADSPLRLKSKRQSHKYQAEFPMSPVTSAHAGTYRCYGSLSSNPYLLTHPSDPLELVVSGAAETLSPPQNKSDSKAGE

For the first assay, the target named is T1, recombinant ILT2 (human) (human, UniProt Q8NHL6 24-461).
T1 construct: also called recombinant ILT2 peptide; ILT2 protein
T1 sequence (Q8NHL6 24-461 limits assumed): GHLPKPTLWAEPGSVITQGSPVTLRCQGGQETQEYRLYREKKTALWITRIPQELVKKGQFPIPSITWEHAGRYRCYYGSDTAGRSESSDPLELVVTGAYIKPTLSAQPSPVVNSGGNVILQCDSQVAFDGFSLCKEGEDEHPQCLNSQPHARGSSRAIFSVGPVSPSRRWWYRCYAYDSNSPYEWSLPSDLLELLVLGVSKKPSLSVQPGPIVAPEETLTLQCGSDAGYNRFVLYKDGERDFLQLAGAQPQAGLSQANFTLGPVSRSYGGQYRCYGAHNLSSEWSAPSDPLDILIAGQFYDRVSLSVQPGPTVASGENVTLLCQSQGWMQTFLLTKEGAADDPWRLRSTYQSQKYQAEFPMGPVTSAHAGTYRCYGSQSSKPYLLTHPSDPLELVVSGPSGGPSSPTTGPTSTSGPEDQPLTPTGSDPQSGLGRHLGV
Nature of the assay: SPR (Biacore T200); KD relative to Control (chimeric 15G8). As for the experimental part: (§1) During grafting of the 15G8 CDRs, five heavy chains and four kappa light chains were generated. These chains were designated VH1-5 and Vk1-4. By combining each heavy chain with each light chain twenty different resultant antibodies are possible. All twenty possible antibodies were transiently expressed in HEK EBNA cells, and the supernatants were tested for binding to recombinant ILT2 peptide using a Biacore T200. The chimeric 15G8 antibody was used as control.
On the technique in general: In SPR one partner is held on a chip, and binding of the other changes the refractive index at the surface.
With B1, the “Relative KD” value turned out to be 0.66.
Same read-out and setting: the result for B2 reads 0.79.
B3: the “Relative KD” value came to 1.48.
For B4, the “Relative KD” value was 0.69.
The same measure, in the same setting: the result for B5 reads 0.7.
On the same count and under the same terms, with B6 the figure was 0.7; with B7, 0.82; with B8, 1.13.
The same measure, in the same setting: with B9 the figure was 0.84; with B10, 0.76; with B11, 1.07.
Consider B12, for which the “Relative KD” value turned out to be 1.
On to B13, for which the “Relative KD” value turned out to be 0.7.
B14: the “Relative KD” value was determined as 0.68.
Still for that read-out and setting: with B15 the figure was 0.65.
On to B16, for which the “Relative KD” value worked out at 0.6.
B17: the “Relative KD” value was determined as 0.68.
Same read-out and setting: the result for B18 reads 0.75; that for B19, 0.72.

The target of the next assay is T1, recombinant ILT2 (human). Nature of the assay: binding ELISA, hILT2-Fc.
Consider B20, for which the “ELISA (OD)” value was determined as 2.61 OD.
As for B21, the “ELISA (OD)” value came out at 1.89 OD.

A further assay addresses ILT6 (UniProt Q8N6C8 24-439, limits assumed). Nature of the assay: binding ELISA, column hILT6-His.
Regarding B20, the “ELISA (OD)” value came out at 0.13 OD and the binding result is on record as “no binding”.
As for B21, the “ELISA (OD)” value was 0.06 OD and the binding result is reported as “no binding”.

For another assay, the target named is T2, PIRB (UniProt P97484 25-642, limits assumed).
T2 sequence (looked up): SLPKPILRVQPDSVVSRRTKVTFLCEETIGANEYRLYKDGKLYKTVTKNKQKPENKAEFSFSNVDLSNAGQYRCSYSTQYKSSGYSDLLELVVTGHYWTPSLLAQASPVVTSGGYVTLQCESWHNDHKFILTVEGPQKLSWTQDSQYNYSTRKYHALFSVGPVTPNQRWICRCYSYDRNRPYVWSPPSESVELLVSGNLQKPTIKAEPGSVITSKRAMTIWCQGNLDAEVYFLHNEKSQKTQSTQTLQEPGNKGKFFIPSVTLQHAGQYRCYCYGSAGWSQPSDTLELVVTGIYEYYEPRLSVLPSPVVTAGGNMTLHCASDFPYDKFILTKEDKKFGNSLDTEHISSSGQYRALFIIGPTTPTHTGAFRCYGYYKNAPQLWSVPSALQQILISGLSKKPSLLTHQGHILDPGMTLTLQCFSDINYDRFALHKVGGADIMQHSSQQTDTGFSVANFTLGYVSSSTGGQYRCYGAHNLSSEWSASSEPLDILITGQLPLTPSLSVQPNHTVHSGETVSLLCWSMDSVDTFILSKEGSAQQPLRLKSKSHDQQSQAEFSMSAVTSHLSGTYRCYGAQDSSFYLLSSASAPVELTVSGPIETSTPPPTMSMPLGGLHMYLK
Nature of the assay: binding ELISA, column PIRB. In general terms: ELISA stands for enzyme-linked immunosorbent assay.
For the molecule B20, the “ELISA (OD)” value is 0.14 OD and the binding result was “no binding”.
On the same counts, the results for B21 are 0.06 OD and “no binding”.

In the next assay the target is LILRA1 (UniProt O75019 17-461, limits assumed). The experiment in a line: binding ELISA, column hLILRA1-His.
Sequence of LILRA1 (O75019 17-461 limits assumed): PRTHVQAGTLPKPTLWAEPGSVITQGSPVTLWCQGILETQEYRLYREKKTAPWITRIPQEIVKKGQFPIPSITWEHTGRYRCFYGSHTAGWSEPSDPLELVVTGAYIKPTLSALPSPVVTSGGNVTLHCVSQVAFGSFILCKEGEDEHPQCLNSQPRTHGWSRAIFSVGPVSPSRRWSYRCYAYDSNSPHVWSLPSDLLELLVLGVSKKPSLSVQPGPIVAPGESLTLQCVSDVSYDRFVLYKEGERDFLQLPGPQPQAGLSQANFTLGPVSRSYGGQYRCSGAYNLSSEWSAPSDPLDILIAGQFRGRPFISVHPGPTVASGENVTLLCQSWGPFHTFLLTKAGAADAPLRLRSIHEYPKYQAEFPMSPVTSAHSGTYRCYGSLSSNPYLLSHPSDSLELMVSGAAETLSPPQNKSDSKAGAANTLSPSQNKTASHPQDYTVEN
Consider B20, for which the “ELISA (OD)” value turned out to be 0.11 OD and the binding result is “no binding”.
For B21, in that order: 0.08 OD and “no binding”.

In a further assay the target is T1, recombinant ILT2 (human). Nature of the assay: SPR (Biacore T200), HEK EBNA supernatants on recombinant ILT2 peptide. The protocol:
as §1
A word on the Kd: it is a measure of binding affinity in units of concentration. In general, koff refers to a measure of how fast the partners let go of each other. Broadly, the kon is the rate constant with which the complex forms. In the case of B1, the dissociation constant Kd is 8.31 nM, the dissociation rate constant (koff) worked out at 0.0076 s⁻¹ and the association rate constant (kon) was 915000 M⁻¹ s⁻¹.
B2: the dissociation constant Kd was 9.93 nM, the koff is 0.00685 s⁻¹ and the association rate constant (kon) was found to be 690000 M⁻¹ s⁻¹.
For B3, in that order: 18.7 nM, 0.00854 s⁻¹ and 457000 M⁻¹ s⁻¹.
On the same counts, the results for B4 are 8.66 nM, 0.00792 s⁻¹ and 915000 M⁻¹ s⁻¹.
Take B5: the dissociation constant Kd amounted to 8.82 nM, the koff turned out to be 0.00678 s⁻¹ and the kon was found to be 769000 M⁻¹ s⁻¹.
For B6, in that order: 8.77 nM, 0.00931 s⁻¹ and 1.06e+06 M⁻¹ s⁻¹.
For B7, in that order: 10.3 nM, 0.0117 s⁻¹ and 1.14e+06 M⁻¹ s⁻¹.
As for B8, the dissociation constant Kd was 14.2 nM, the koff came to 0.00789 s⁻¹ and the association rate constant (kon) was 554000 M⁻¹ s⁻¹.
With B9, the dissociation constant Kd was determined as 10.6 nM, the koff is 0.0072 s⁻¹ and the on-rate (kon) was determined as 682000 M⁻¹ s⁻¹.
For B10, in that order: 9.58 nM, 0.00728 s⁻¹ and 760000 M⁻¹ s⁻¹.
For B11, in that order: 13.5 nM, 0.00977 s⁻¹ and 724000 M⁻¹ s⁻¹.
On the same counts, the results for B12 are 12.6 nM, 0.00832 s⁻¹ and 661000 M⁻¹ s⁻¹.
In the case of B13, the Kd turned out to be 8.79 nM, the off-rate (koff) amounted to 0.0066 s⁻¹ and the on-rate (kon) is 752000 M⁻¹ s⁻¹.
B14: the Kd is 8.52 nM, the off-rate constant (koff) came out at 0.00681 s⁻¹ and the on-rate constant (kon) stood at 799000 M⁻¹ s⁻¹.
For B15, in that order: 8.19 nM, 0.00664 s⁻¹ and 811000 M⁻¹ s⁻¹.
B16: the Kd was 7.57 nM, the koff turned out to be 0.00954 s⁻¹ and the kon was found to be 1.26e+06 M⁻¹ s⁻¹.
For B17, in that order: 8.55 nM, 0.00994 s⁻¹ and 1.16e+06 M⁻¹ s⁻¹.
For B18, the Kd worked out at 9.51 nM, the koff is 0.00843 s⁻¹ and the kon was 886000 M⁻¹ s⁻¹.
With B19, the Kd turned out to be 9.03 nM, the dissociation rate constant (koff) came out at 0.00611 s⁻¹ and the kon came to 677000 M⁻¹ s⁻¹.
